Assay results published in patent US20230265198A1 (TWIST BIOSCIENCE, published 2023).
Substitutions are numbered along the chain they refer to.

B1: NRP1-24 (VHH)
VHH: EVQLVESGGGLVQPGGSLRLSCAASGFKFNDSYMGWFRQAPGKEREFVATIWWTFDAPYYADSVKGRFTISADNSKNTAYLQMNSLKPEDTAVYYCAVKERSTGWDFAWGQGTLVTVSS
B2: NRP1-21 (VHH)
VHH: EVQLVESGGGLVQPGGSLRLSCAASGRSRYGMGWFRQAPGKEREFVAAITRSGKTTYYADSVKGRFTISADNSKNTAYLQMNSLKPEDTAVYYCARRLLSGSPSRSYYFDYWGQGTLVTVSS
B3: NRP1-67 (VHH)
VHH: EVQLVESGGGLVQPGGSLRLSCAASGLYLHSSAMGWFRQAPGKEREFVAAISSSDGSTEYADSVKGRFTISADNSKNTAYLQMNSLKPEDTAVYYCASVRYYDYWSGYYTPTHAGYFESWGQGTLVTVSS
B4: NRP1-29 (VHH)
VHH: EVQLVESGGGLVQPGGSLRLSCAASGFTLDNYAMGWFRQAPGKEREFVARITSGGDTTYYADSVKGRFTISADNSKNTAYLQMNSLKPEDTAVYYCARAYGRGTYDWGQGTLVTVSS
B5: NRP1-5 (VHH)
VHH: EVQLVESGGGLVQPGGSLRLSCAASGNIDRLYVMGWFRQAPGKEREFVAAINWSSGTTVYADSVKGRFTISADNSKNTAYLQMNSLKPEDTAVYYCARSYSSLFRFDYWGQGTLVTVSS
B6: NRP1-30 (VHH)
VHH: EVQLVESGGGLVQPGGSLRLSCAASGRTLSSYNMGWFRQAPGKEREFVARIWPGGGTTYADSVKGRFTISADNSKNTAYLQMNSLKPEDTAVYYCARDYFGSGSYYDWGQGTLVTVSS
B7: NRP1-19 (VHH)
VHH: EVQLVESGGGLVQPGGSLRLSCAASGIAFRIRTMGWFRQAPGKEREFVAGISRSGASTAYADSVKGRFTISADNSKNTAYLQMNSLKPEDTAVYYCTTDRWYSSNWWGQGTLVTVSS
B8: NRP1-66 (VHH)
VHH: EVQLVESGGGLVQPGGSLRLSCAASGRTFRPYRMGWFRQAPGKERELVAAITSGTHKDYADSVKGRFTISADNSKNTAYLQMNSLKPEDTAVYYCAADYSGSYTSLWSRPERLWGQGTLVTVSS
B9: NRP1-64 (VHH)
VHH: EVQLVESGGGLVQPGGSLRLSCAASGSTFRGAAMGWFRQAPGKEREWVGTISSDGTTKYADSVKGRFTISADNSKNTAYLQMNSLKPEDTAVYYCAADRVLYYSDSRYYTGSNWGQGTLVTVSS
B10: NRP1-57 (VHH)
VHH: EVQLVESGGGLVQPGGSLRLSCAASGFTFSNSGMGWFRQAPGKERELVARITRGGRTYADSVKGRFTISADNSKNTAYLQMNSLKPEDTAVYYCAARRIVNVEGAYRDWGQGTLVTVSS
B11: NRP1-42 (VHH)
VHH: EVQLVESGGGLVQPGGSLRLSCAASGRTISNYDMGWFRQAPGKEREWVASINWGDGNTYYADSVKGRFTISADNSKNTAYLQMNSLKPEDTAVYYCARAPTYYYDSSGYYYAYWGQGTLVTVSS
B12: NRP1-3 (VHH)
VHH: EVQLVESGGGLVQPGGSLRLSCAASGEPTFSSVAMGWFRQAPGKEREWVAEIYPSGSTVYADSVKGRFTISADNSKNTAYLQMNSLKPEDTAVYYCAKTNWNDWGAFDIWGQGTLVTVSS
B13: NRP1-34 (VHH)
VHH: EVQLVESGGGLVQPGGSLRLSCAASGYTYRKYCMGWFRQAPGKEREWVAAISRSGNLKSYADSVKGRFTISADNSKNTAYLQMNSLKPEDTAVYYCAIKRWPVDTRRRRDMVVGCPGRDEYEWGQGTLVTVSS
B14: NRP1-40 (VHH)
VHH: EVQLVESGGGLVQPGGSLRLSCAASGSITSFNAMGWFRQAPGKERELVASINWSGARTLYADSVKGRFTISADNSKNTAYLQMNSLKPEDTAVYYCASARYYGSGRHFDYWGQGTLVTVSS
B15: NRP1-31 (VHH)
VHH: EVQLVESGGGLVQPGGSLRLSCAASGLTFRRYDMGWFRQAPGKERELVAIKFSGGSTRYADSVKGRFTISADNSKNTAYLQMNSLKPEDTAVYYCATSSGRVPAALNWGQGTLVTVSS
B16: NRP1-32 (VHH)
VHH: B15 VHH with K51I, S70I, S74N, T90N
B17: NRP1-38 (VHH)
VHH: EVQLVESGGGLVQPGGSLRLSCAASGFTFGSTTMGWFRQAPGKEREFVATMRWSTGSTVYADSVKGRFTISADNSKNTAYLQMNSLKPEDTAVYYCAVRGDWWAYWTPWGQGTLVTVSS
B18: NRP1-52 (VHH)
VHH: EVQLVESGGGLVQPGGSLRLSCAASGFTFSWYPMGWFRQAPGKEREFVAAISPSGSTDYADSVKGRFTISADNSKNTAYLQMNSLKPEDTAVYYCARDPNYDFWSGYYSSEHYFDYWGQGTLVTVSS
B19: NRP1-20 (VHH)
VHH: EVQLVESGGGLVQPGGSLRLSCAASGSTFSLFAMGWFRQAPGKEREFVAAISRSGGLTSYADSVKGRFTISADNSKNTAYLQMNSLKPEDTAVYYCAKAAGDWTYDEDYYYMDVWGQGTLVTVSS
B20: NRP1-39 (VHH)
VHH: EVQLVESGGGLVQPGGSLRLSCAASGRTFSGDVMGWFRQAPGKEREFVAAINYSGRSINYADSVKGRFTISADNSKNTAYLQMNSLKPEDTAVYYCARETLWLKRYWGQGTLVTVSS
B21: NRP1-54 (VHH)
VHH: EVQLVESGGGLVQPGGSLRLSCAASGIAFRIRTMGWFRQAPGKEREFVAGISRSGASTAYADSVKGRFTISADNSKNTAYLQMNSLKPEDTAVYYCAARRIVNVEGAYRDWGQGTLVTVSS
B22: NRP1-290 (antibody, IgG2, V domains shown)
VH: EVQLLESGGGLVQPGGSLRLSCAASGFTFRNYAMTWVRQAPGKGLEWVSGISGSGGSTYYSDSVKGRFTISRDNSKNTLYLQMNSLRAEDTAVYYCARGRRGMPTPDTVRKMSKSHLYFDSWGQGTLVTVSS
VL: DIQMTQSPSSLSASVGDRVTITCRTSQSISRYLNWYQQKPGKAPKLLIYGASTLQSGVPSRFSGSGSGTDFTLTISSLQPEDFATYYCQQNYIIPWTFGGGTKVEIK
B23: NRP1-299 (antibody, IgG2, V domains shown)
VH: EVQLLESGGGLVQPGGSLRLSCAASGFTFRRYAMSWVRQAPGKGLEWVATISGSGGSTYYADSVKGRFTISRDNSKNTLYLQMNSLRAEDTAVYYCARGGNGSNRRPSLLPRNRAAAIGFESAFDVWGQGTLVTVSS
VL: B22 VL with T25A, S28T, S30A, R31N, G50R, T53R, N91S, I93N, I94T, W96Y
B24: NRP1-292 (antibody, IgG2, V domains shown)
VH: EVQLLESGGGLVQPGGSLRLSCAASGFTLSSYAMAWVRQAPGKGLEWVSAIRGSGGTTYYADSVKGRFTISRDNSKNTLYLQMNSLRAEDTAVYYCARRGRAPRMVRGVVNRRPYYFDYWGQGTLVTVSS
VL: B22 VL with S30A, R31T, T53R, L54S, N91S, I93F, I94T, W96P
B25: NRP1-28 (VHH)
VHH: EVQLVESGGGLVQPGGSLRLSCAASGFTRSYYTMGWFRQAPGKEREFVAAMNWSGSSTVYADSVKGRFTISADNSKNTAYLQMNSLKPEDTAVYYCAKDTGSPKNYYYYYGMDVWGQGTLVTVSS
B26: NRP1-56 (VHH)
VHH: EVQLVESGGGLVQPGGSLRLSCAASGRTFSSYRMGWFRQAPGKEREFVASIRSSGTTYADSVKGRFTISADNSKNTAYLQMNSLKPEDTAVYYCARDTLGRASSSTDWGQGTLVTVSS
B27: NRP1-68 (VHH)
VHH: EVQLVESGGGLVQPGGSLRLSCAASGNIFINNAMGWFRQAPGKERELVAAITSSSGRRWYADSVKGRFTISADNSKNTAYLQMNSLKPEDTAVYYCTTDRWYSSNWWGQGTLVTVSS
B28: NRP1-55 (VHH)
VHH: EVQLVESGGGLVQPGGSLRLSCAASGFTLDYYVMGWFRQAPGKEREWVAFISGSGSKFYADSVKGRFTISADNSKNTAYLQMNSLKPEDTAVYYCVIQHFWSGYDDDYWGQGTLVTVSS
B29: NRP1-69 (VHH)
VHH: EVQLVESGGGLVQPGGSLRLSCAASGFNFNWYPMGWFRQAPGKEREWVGTINSGGSTSYADSVKGRFTISADNSKNTAYLQMNSLKPEDTAVYYCARLPPRGSYYYYYYGMDVWGQGTLVTVSS
B30: NRP1-26 (VHH)
VHH: EVQLVESGGGLVQPGGSLRLSCAASGRTFRPYRMGWFRQAPGKEREWISTIYSNGHTYYADSVKGRFTISADNSKNTAYLQMNSLKPEDTAVYYCAAQRRWSQDWGQGTLVTVSS
B31: NRP1-60 (VHH)
VHH: EVQLVESGGGLVQPGGSLRLSCAASGNIFINNAMGWFRQAPGKERELVAAISGRSGNTYYADSVKGRFTISADNSKNTAYLQMNSLKPEDTAVYYCAARRIVNVEGAYRDWGQGTLVTVSS
B32: NRP1-63 (VHH)
VHH: EVQLVESGGGLVQPGGSLRLSCAASGTFGSYTMGWFRQAPGKERELVATIWWTFDAPYYADSVKGRFTISADNSKNTAYLQMNSLKPEDTAVYYCAAYQAGWGDWGQGTLVTVSS
B33: NRP1-36 (VHH)
VHH: EVQLVESGGGLVQPGGSLRLSCAASGFPVNRYSMGWFRQAPGKEREFVATITVGGSTYYADSVKGRFTISADNSKNTAYLQMNSLKPEDTAVYYCARQFGAWLGEVVGPMDVWGQGTLVTVSS

Biological target: T1, neuropilin-1 (NRP1) on HEK293 cells overexpressing NRP1 (UniProt O14786 22-923, limits assumed)
T1 construct: whole, on cells
Assay: flow cytometry, HEK293-NRP1 vs HEK293

| Binder | 100 nM FACS (MFI Ratio) |
| --- | --- |
| B1 | 6.4 |
| B2 | 1 |
| B3 | 2.1 |
| B4 | 26 |
| B5 | 14.8 |
| B6 | 40.2 |
| B7 | 420 |
| B8 | 1.1 |
| B9 | 0.8 |
| B10 | 0.1 |
| B11 | 4 |
| B12 | 13.4 |
| B13 | 612 |
| B14 | 16.7 |
| B15 | 5.7 |
| B16 | 0.3 |
| B17 | 10.5 |

| Binder | 100 nM FACS (MFI Ratio) |
| --- | --- |
| B18 | 10.7 |
| B19 | 50.9 |
| B20 | 5.6 |
| B21 | 0.6 |
| B22 | 0.6 |
| B23 | 2.5 |
| B24 | 0.4 |
| B25 | 33 |
| B26 | 5.4 |
| B27 | 4.9 |
| B28 | 2.7 |
| B29 | 8.2 |
| B30 | 0.9 |
| B31 | 1 |
| B32 | 8.3 |
| B33 | 3 |
